B1: TPR t1 (parent)
chain: GACCAAUCUGCCCUCAGAGCUCGAGAACAUCUUCGGAUGCAGAGGAGGCAGGCUUCGGUGGCGCGAUAGCGCCAACGUCCUCAACCUCCAAUGCAUCCCACCACAUGAUGAUGCCUGAAGAGCCUUGGUUUUUUG

Variants of: B1
Experiment: polymerase ribozyme fitness, log enrichment relative to wild type (log ratio); higher = more active; in vitro selection for triplet polymerase activity
Outline: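 Mutant libraries of both subunits of a heterodimeric triplet polymerase ribozyme were PCR-built, transcribed, and selected once in triplicate, with frozen incubation at −7 °C and capture of gel-excised extended constructs on streptavidin beads before RT-PCR. Illumina sequencing of input and output libraries was filtered to genotypes with ≥10 input reads and ≥1 read per output. Fitness is the logarithm of genotype enrichment over wild-type enrichment, using inverse-variance-weighted replicate averages. The logarithm is base 2.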

Row | Variant | polymerase ribozyme fitness (log ratio)
1 | GACCAAUCUGCCCUCAGAGGUCGAGAACAUCUUCGGAUGCAGAGGUGGCAGGCUUCGGUGGCGCGAUAGCGCCAACGUCCUCAACCUCCAAUGCAUCCCACCACAUGAUGAUGCCUGAAGAGCCUUGGUUUUUUG [C20G A46U] | -4.99
2 | GACCAAUCUGCCCUCAGAGGUCGAGAACAUCUUCGGAUGCAGAGGAGGCAGGCUUCGGUGGCGCGAUAGCGCCAACGUCCUCAACCUCCAGUGCAUCCCAACACAUGAUGAUGCCUCAAGAGCCUUGGUUUUUUG [C20G A91G C101A G117C] | -4.92
3 | GACCAAUCUGCCCUCAGAGGUCGAGAACAUCUUCGGAUGCAGAGGAGGCAGGCUUUGGUGGCGCGAUAGCGUCAACGUCCUCAACCUCCAAUGCAUCCCACCACAUGAUGAUGCCUGAAGAGCCUUGGUUUUUUG [C20G C56U C72U] | -3.6
4 | GACCAAUCUGCCCUCAGAGGUCGAGAACAUCUUCGGAUGCAGAGGAGGCAGGCUUCGGUGGCGCGAUAGCGCCAACGUCCUCAACCUCCAAUGCAUCCCACCACAUGAUGAUGCCUGAAGAGCCUUGGUUUUUUC [C20G G135C] | -3.68
5 | GACCAAUCUGCCCUCAGAGGUCGAGAACAUCUUCGGAUGCAGAGGAGGCAGGCUUCGGUGGCGCGAUAGCGACAACGUCCUCAACCCCCAAUGCAUCCCACCACAUGAUGAUACCUGAAGAGCCUUGGUGUUUUG [C20G C72A U87C G113A U130G] | -1.05
6 | GACCAAUCUGCCCUCAGAGGUCGAGAACAUCUUCGGAUGCAGAGGAGGCAGGCUUCGGUGGCGCGAUAGCGCUAACGUCCUCCACCUCCAAUGCAUCCCACCACAUGAUGAUGCCUGAAGAGCCUUGGUUUUUUG [C20G C73U A83C] | -4.27
7 | GACCAAUCUGCCCUCAGAGGUCGAGAACAUCUUCGGAUGCAGAGGAGGCAGGCUUCGGUGGCGCGAUAGCGCCAACGUCCUCAACCUCCAAUGUAUCCCACCACAUGAUGAUGACUGAAGAUCCGUGGUUUUUUG [C20G C94U C114A G122U U125G] | -6.15
8 | GACCAAUCUGCCCUCAGAGGUCGAGAACAUCUUCGGAUGCAGAGGAGGCAGGCUUCGGUGGUGCGAUAGCGCCAACGUCCUCAACCUCCAAUGCAUCUCACCACAUGAUGUUGCCUGAACAGCCUUGGUUUUUUG [C20G C62U C98U A111U G120C] | -4.17
9 | GACCAAUCUGCCCUCAGAGGUCGAGAACAUCUUCGGAUGCAGAGGAGGCAGGCUUCGGUGGAGCGAUAGCGCCAACGUCCUCAACCUCCAAUGCAUCCCACCACAUGAUGAUGCCUGAAGAGCCUUGGUUUUUUG [C20G C62A] | -4.56
10 | GACCAAUCUGCCCUCAGAGGUCGAGAACAUCUUCGGAUGAAGAGGAGGCAGGCUUCGCUGGCGCGAUAGCGCCAACGUCCUCAACCUCCAAUGCAUCCCACCACAUGAUGAUGCCUGAAGUGCCUUGGUUUUUUG [C20G C40A G58C A121U] | -4.66
11 | GACCAAUCUGCCCUCAGAGGUCGAGAACAUCUUCGGAUGCAGAGGAGGCAGGCUUCGGUGGCGCGAUAGCGCCAACGUCCUCAACCUCCAAUGCAUCCCACCACAUGAUGAUGCCUUAAGAGCCUUGGUUUUUUG [C20G G117U] | -5.16
12 | GACCAAUCUGCCCUCAGAGGUCGAGAACAUCUUCGAAUGCAGCGGAGGCAGGCUUCGGUGGCGCGAUAGCGCCAACGUCCUCAACCUCCAAUGCAGCCCACCACAUGAUGAUGCCUCAAGAGCCUUGGUUUUUUG [C20G G36A A43C U96G G117C] | -5.42
13 | GACCAAUCUGCCCUCAGAGGUCGAGAACAUCUUCGGAUGCAGAGGAGACAGACUUCGGUGGCGCGAUAGCGCCAACGUCCUCAACCUCCAAUGCAUCCCACCACAUGAUGAUGCCUGAAGAGCCUUGGUUUUUUG [C20G G48A G52A] | -6
14 | GACCAAUCUGCCCUCAGAGGUCGAGAACAUCUUCGGAUGCAGAGGUGGCAGGCUUCGGUGGCGCGAUAGCGCCAACGUCCUCAACCUCCAAUGCAUCCCACCACAUGAUGAUGUCUGAAGAGCCUUGGUUUUUUG [C20G A46U C114U] | -3.16
15 | GACCAAUCUGCCCUCAGAGGUCGAGAACAGCUUCGGAUGCAGAGGAGGCAGGCUUCGGUGGCGCGAUAGCGCCAACGUCCUCAACCUCCAAUGCAUCCCACCACAUGAUGAUGGCUUAAGAGCGUUGGUUUUUUG [C20G U30G C114G G117U C124G] | -7.61
16 | GACCAAUCUGCCCUCAGAGGUCGAGAACAUCUUCGGAUGCAGAGGAGGCAGGCUUCGGUGGCGCGAUAGCGCCAACGUCCUCAACCUCCAAUACAUCCCACCACAUGAUGAUGCCUGAAGAGCCUUGGUUUUUUG [C20G G93A] | -5.03
17 | GACCAAUCUGCCCUCAGAGGUCGAGAACAUCUUCGGAUGCAGAGGAGGCAGGCUUCGGUGGCGCGAUAGCAACAACGUCUUCAACCUCCAAUGCAUCCCACCACAUGAUCAUGCCUCAAGAGCCUUGGUUUUUUG [C20G G71A C72A C80U G110C G117C] | -6.92
18 | GACCAAUCUGCCCUCAGAGGUCGAGAACAUCUUCGGAUGCAGAAGAGGCAGGCUUCGGUGGCGCGAUAGCGCCAACGUCCUCAACCUCCAAUGCAUCCCACCACAUGAUGAUGCCUGAACAGCCUUGGUUUUUUG [C20G G44A G120C] | -4.1
19 | GACCAAUCUGCCCUCAGAGGUCGAGAACAUCUUCGGAUGCAGAGGAGGCAGGCUUCGGUGGCGCGAUAGCGCCAACGUCCUCAACCUCCAAUGCAUCCCACCACAUGAUGAUGCAUGAAGAGCCUUGGUUUUUUG [C20G C115A] | -3.94
20 | GACCAAUCUGCCCUCAGAGGUCGAGAACAUCUUCGGAUGCAGAGGAGGCAGGCUUCGGUGGCGCGAUAGCGCCAACGUCCUCAACCUCCAAUGCAUCCCACCACAUGAUGAUGCGUGAAGAGCCUUGGUUUUUUG [C20G C115G] | -4.85
21 | GACCAAUCUGCCCUCAGAGGUCGAGAACAUCUUCGGAUGAAGAGGAGGCAGGCUUCGGUGGCGCGAUAGUGCCAACGUCCUCAACCUCCAAAACAUCCCACCACAUGAUGAUCCCUGAAGAGCCUUGGUUUUUUG [C20G C40A C70U U92A G93A G113C] | -6.62

Row | Variant | polymerase ribozyme fitness (log ratio)
22 | GACCAAUCUGCCCUCAGAGGUCGAGAACAUCUUCGGAUGCAGAGGAGGCAGGCUUCGGUGGCGCGAUAGCGCCAACGUCCUAAACCUCCAAUGCAUCCCACCACAUGAUGAUGCCUGAAGAGCCUUGGUUUUUUG [C20G C82A] | -4.78
23 | GACCAAUCUGCCCUCAGAGGUCGAGAACAUCUUCGGAUGCAGAGGAGGCAGGCUUCGGUGGCGCGAUAGCGCCAACGUCCUCAACCUCCAAUGCAUCCCACCACAUGAUGAUGCUUCAAGAGCCUUGGUUUUUUG [C20G C115U G117C] | -4.63
24 | GACCAAUCUGCCCUCAGAGGUCGAGAACAUCUUCGGAUGCAGAGAAGGCAGGCUUCGGUGGCGCGAUAGCGCCAACGUCCUCAACCUCCAAUGCAUCCCACCACAUGAUGAUGCCUGAAGAGCCUUGGUCUUUUG [C20G G45A U130C] | -5.42
25 | GACCAAUCUGCCCUCAGAGGUCGAGAACAUCUUCGGAUGCAGAGGAGGCAGGCUUCGGUGGCGCGAUAGCGCCAACGUCCUCAACCUCCAAUGCAUCCCACCACAUGAUGAUGCCUGAAUAGCCUUGGUUUUUUG [C20G G120U] | -4.25
26 | GACCAAUCUGCCCUCAGAGGUCGAGAACAUCUUCGGAUACAGAGGAGGCAGGCUUCAGUGGCGCGAUAGCGCCAACGUCCUCAACCUCCAAUGCAUCCCACCACAUGAAGAUGCCUGAAGAGCCUUGGUUUUUUG [C20G G39A G57A U109A] | -3.93
27 | GACCAAUCUGCCCUCAGAGGUCGAGAACAUCUUCGGAUGCAGAGGAGGCAGGCUUCGGUGGCGCGAUAGCGUCAACGUCCUCAACCUCCAAUGCAUCCCACCACAUGAUGAUGCCUGAAGAGCCUUGGUUUUUUG [C20G C72U] | -4.16
28 | GACCAAUCUGCCCUCAGAGGUCGAGAACAUCUUCGGAUGCAGAGGAGGCAGGCUUCGGUGGCGCGAUAGCGCCAACGUCCUCAACCUCCAAUGCAUCCCACCACAUGAUGAUGCCUGAAGAACCUUGGUUUUUUG [C20G G122A] | -4
29 | GACCAAUCUGCCCUCAGAGGUCGAGAACAUCUUCGGAUGCAGAGGAGGCAGGAUUCGGUGGCGCGAUAGCGCCAACGUCCUCAACCUCCAAUGCAUCCCACCACAUGAUGAUGCCUGAAGAGCCUUGGUUUUUUG [C20G C53A] | -4.27
30 | GACCAAUCUGCCCUCAGAGGUCGAGAACAUCUUCGGAUGCAGAGGAGGCAGGGUUCGGUGGCGCGAUAGCGCCAACGUCCUCAACCUCCAAUGCAUCCCACCACAUGAUGAUGCCUGAAGAGCCUUGGUUUUUUG [C20G C53G] | -4.62
31 | GACCAAUCUGCCCUCAGAGGUCGAGAACAUCUUCGGAUGCAGAGGAGGCAGGUUUCGGUGGCGCGAUAGCGCCAACGUCCUCAACCUCCAAUGCAUCCCACCACAUGAUGAUGCCUGAAGAGCCUUGGUUUUUUG [C20G C53U] | -3.06
32 | GACCAAUCUGCCCUCAGAGGUCGAGAACAUCUUCGGAUGCAGAGGAGGCAGGCUUCGGUGGCGCGAUAGCGCCAACGUCCUCAACCUCCAAUGCAUCCCACCACAUGAUGAUGCCUGAAGAGGCUUGGUUUGUUG [C20G C123G U132G] | -3.39
33 | GACCAAUCUGCCCUCAGAGGUCUAGAACAUCAUCGGAUGCAGAGGAGGCAGGCUUCGGUGGCGCGAUAGCGCCAACGUCCUCAACCUCCAAUGCAUCGCACCACAUGAUGAUGCCUGAAGAGGCUUGGUUGUUUG [C20G G23U U32A C98G C123G U131G] | -6.64
34 | GACCAAUCUGCCCUCAGAGGUCGAGAACAUCUUCGGAUGCAGAGGAGGCAGGCUUCGGUGUCGCGAUAGCGCCAACGUACUCAACCUCCAAUGCAUCCCACCACAUGAUGAUGCCUCAAGAGACUUGGUUUUUUG [C20G G61U C79A G117C C123A] | -6.44
35 | GACCAAUCUGCCCUCAGAGGUCGAGAACAUCUUCGGAUGCAGAUGAGGCAGGCUUAGGUGGCGCGAUGGCGCCAACGUCCUCAACCUCCAAUGCAUCACACCACAUGAUGAUGUCUGAAGAGCCUUGGUUUUUUG [C20G G44U C56A A68G C98A C114U] | -6.77
36 | GACCAAUCUGCCCUCAGAGGUCGAGAACAUCUUCGAAUGCAGAGGAGGCAGGCUUCGGUGGCGCGAUAGCGCCAACGUCCUCAACCUCCAAUGCAUCCCACCACAUGAUGAUGCCUGAAGCGCCUUGGUUUUUUG [C20G G36A A121C] | -3.32
37 | GACCAAUCUGCCCUCAGAGGUCGAGAACAUCUUCGGAUGCAGAGGAGGCAGGCUUUGGUGGCGCGAUAGCGCCAACGUCCUCAACCUCCAAUGCAUCCCACCACAUGAUGAUGCCUGAAGAGACUUGGUUUUUUG [C20G C56U C123A] | -5.13
38 | GACCAAUCUGCCCUCAGAGGUCGAGAACAUCUUCGGAUGCAGAGGAGGCAGGCUUAGGUGGCGCGAUAGCGCCAACGUCCUCAACCUCCAAUGCAUCCCACCACAUGAUGAUGCCUGAAGAGCCUUGGUUUUUUG [C20G C56A] | -4.28
39 | GACCAAUCUGCCCUCAGAGGUCGAGAACAUCUUCGGAUGCAGAGGAGGCAGGCUUCGGUGGCGCGAUAGCGCAAACGUCCUCAACCUCCAAUGCAUCCCAUCACAUGAUGAUUCCUGAAGAGCCUUGGUUUUUUG [C20G C73A C101U G113U] | -0.556
40 | GACCAAUCUGCCCUCAGAGGUCGAGAACAUCUUCGGAUGCAGAGGAGGCAGGCUUCGGUGGCGCGAUAGCGCCAACGCCCUCAACCUCCAAUGCAUCCCACCACAUGAUGAUGCCUGAAGAGCCUUGGUUUUUUG [C20G U78C] | -3.43
41 | GACCAAUCUGCCCUCAGAGGUCGAGAACAUCUUCGGAUGCAGAGGAGGCAGGCUUCGGUGGCUCGAUAGCGCCAACGUCCUGAACCUCCAAUGCAUCCCACCACAUGAUGAUCCCUGAAGAGCCUUGUUUUUUUG [C20G G63U C82G G113C G128U] | -4.75
42 | GACCAAUCUGCCCUCAGAGGUCGAGAACAUCUUCGGAUGCAGAGGAGGCAGGCUUGGGUGGCGCGAUAGCGCCAACGUCCUCAUCCUCCAAUGCAUCCCACCACAUGAUGAUGCCUGAAGAGCCUUGGUUUUUUG [C20G C56G A84U] | -4.43

From the RNAGym collection of RNA variant scans (doi:10.1073/pnas.2313332121)
